Experimental data taken from patent US7988958B2, “Enterococcus and Streptococcus strains and bacteriocins” (The United States of America as represented by the …, priority 2005, dated 2011).
Like-named read-outs stand apart in the source and are kept apart here.

Columns and labels:
C. jejuni NCTC 11168 [1] = assay: Spot test; type: cell-based, Campylobacter jejuni; settings: for Inhibiting activity in Spot Test: crude antimicrobial preparation (CAP), C. jejuni NCTC 11168; for Inhibiting Activity, Spot Test: purified bacteriocin, C. jejuni
C. jejuni L4 = assay: MIC by spot test; type: cell-based
E. coli O157:H7 G-3 = assay: MIC by spot test; type: cell-based
Y. pseudotuberculosis = type: cell-based
C. jejuni NCTC 11168 [2] = assay: Thermostability and effect of pH on bacteriocin activity (spot test); type: physicochemical, Campylobacter jejuni; settings: for Antimicrobial activity after treatment: heating to about 90° C.
[3] = Isoelectric focusing (pI); type: physicochemical; settings: for pI of the band with antimicrobial activity: pure bacteriocin, gel overlaid with Campylobacter jejuni
C. jejuni NCTC 11168 [4] = assay: IEF gel tested for growth inhibition of test strain; type: cell-based, Campylobacter jejuni; settings: for Inhibiting Activity measured by IEF: CAP, active band, C. jejuni NCTC 11168; for Inhibiting Activity IEF: purified bacteriocin, C. jejuni
Protocol: (§1) CAPs and bacteriocins were electrophoresed in about 15% […] gel weight, about 1% SDS (9×12 cm) in Tri-glycine buffer. After electrophoresis at about 100 mA for approximately 4 hours, gels were fixed with a solution containing approximately 15% ethanol and approximately 1% acetic acid. The gels were then washed with distilled water for approximately 4 hours. To determine molecular weights of protein fractions, the gel was stained with a solution containing approximately 0.21% Coomassi Blue G-250, about 40% ethanol, and about 7% acetic acid. Washed gels were tested against three target bacteria, C. jejuni NCTC 11168, E. coli 0157:H7 904, and S. enteritidis 204 by the method of Bhunia et al. (Journal of Industrial Microbiology, Volume 2, 319-322, 1987; herein incorporated by reference). The gels were placed in Petri dishes, covered with 5% blood-semi-solid Campylobacter agar (about 0.75%) or semi-solid MPA, and seeded with cells of the test strains. Plates containing C. jejuni were incubated at about 42° C. for approximately 48 hours under microaerobic conditions, E. coli 0157:H7 and S. enteriditidis at about 37° C. for approximately 24 hours. Assessment was based on visualization of zones of the inhibited growth of the test strains in the presence of bacteriocins.
(§2) Specimens of bacteriocins were placed on IEF gels (pH approximately 4.4-10.0) (Novex, San Diego, Calif.). The gels were run at about 100V for about 1 hour, 200V for about 2 hour, and 500V for about 30 minutes in XCM II™ Mini-Cell (Novex). Gels were washed with distilled water for about 4 hours without fixation followed by staining with Coomassie Blue G-250 to determine isoelectric points (pI) of the bacteriocins and their ability to inhibit the growth of the test strains as presented in FIGS. 1 and 2 and in Table 2.

Sh. dysenteriae = assay: MIC by spot test; type: cell-based
S. enteritidis 237 = assay: MIC by spot test; type: cell-based
E. coli O157:H7 904 = assay: IEF gel tested for growth inhibition of test strain; type: cell-based; settings: for Inhibiting Activity measured by IEF: CAP, active band, E. coli O157:H7 904; for Inhibiting Activity IEF: purified bacteriocin, E. coli O157:H7
Protocol: as §1, §2

S. enteritidis 204 = assay: as above; type: cell-based; settings: for Inhibiting Activity measured by IEF: CAP, active band; for Inhibiting Activity IEF: purified bacteriocin
Protocol: as §1, §2

Y. enterolitica 04 = assay: MIC by spot test; type: cell-based, Y. enterocolitica
E. coli O157:H7 lab. 39 = assay: MIC by spot test; type: cell-based
Campylobacter spp. K-10 = assay: MIC by agar diffusion; type: cell-based; settings: Campylobacter spp. strain K-10
Protocol: (§3) The susceptibility of Campylobacter spp. to purified preparations of bacteriocins 760 and E50-52 was determined using strains isolated from broiler chicks as described above in Example 1. Antagonistic activity of the bacteriocins was assessed on the basis of minimum inhibitory concentrations (MICs) which were determined by agar diffusion. […] All the tested bacteriocins are highly antagonistic to the Campylobacter spp. strains.

Campylobacter spp. G-1 = assay: MIC by agar diffusion; type: cell-based; settings: Campylobacter spp. strain G-1
Protocol: as §3

Campylobacter spp. I/U-1 = assay: MIC by agar diffusion; type: cell-based; settings: Campylobacter spp. strain I/U-1
Protocol: as §3

Campylobacter spp. P-31 = assay: MIC by agar diffusion; type: cell-based; settings: Campylobacter spp. strain P-31
Protocol: as §3

Campylobacter spp. G-2 = assay: MIC by agar diffusion; type: cell-based; settings: Campylobacter spp. strain G-2
Protocol: as §3

Campylobacter spp. P-27 = assay: MIC by agar diffusion; type: cell-based; settings: Campylobacter spp. strain P-27
Protocol: as §3

Campylobacter spp. P-2 = assay: MIC by agar diffusion; type: cell-based; settings: Campylobacter spp. strain P-2
Protocol: as §3

Campylobacter spp. B-3 = assay: MIC by agar diffusion; type: cell-based; settings: Campylobacter spp. strain B-3
Protocol: as §3

S. choleraesuis 434/4 = assay: MIC by spot test; type: cell-based
[5] = system: Pseudomonas aeruginosa 25583; assay: MIC by spot test; type: cell-based
[6] = system: Staphylococcus epidermidis; assay: MIC by spot test; type: cell-based
Proteus mirabilis = assay: MIC by spot test; type: cell-based
Campylobacter jejuni = assay: Antagonistic activity of products purified by Methods A and B; type: cell-based; design: Specific Activity UE/ml: unit not given here
Y. enterolitica 09 = assay: MIC by spot test; type: cell-based, Y. enterocolitica
S. typhimurium 383/60 = assay: MIC by spot test; type: cell-based
L. monocytogenes 9-72 = assay: MIC by spot test; type: cell-based
E. coli C600 = assay: MIC by spot test; type: cell-based

Bacteriocin 50-52: bacteriocin produced by Enterococcus durans/faecium/hirae NRRL B-30746 (strain 50-52); amino acid sequence SEQ ID NO 1 (TTKNYGNGVCNSVNWCQCGNVWASCNLATGCAAWLCKLA; listed as Enterococcus faecium)
Inhibiting activity in Spot Test (C. jejuni NCTC 11168 [1]): 12,800 AU/ml | Inhibiting Activity, Spot Test (C. jejuni NCTC 11168 [1]): 12,800 AU/ml | MICs (C. jejuni L4; C. jejuni L-4): 0.2 µg/mL | MICs (E. coli O157:H7 G-3): 0.1 µg/mL | MICs (Y. pseudotuberculosis; Y. pseudotuberculosis): 0.4 µg/mL | Stability at different values of pH (C. jejuni NCTC 11168 [2]; about pH 10): became inactive | Antimicrobial activity after treatment (C. jejuni NCTC 11168 [2]): retained it | Stability at different values of pH (C. jejuni NCTC 11168 [2]; pH about 3.0 to about 9.0): stable | IEF (pI) ([3]; cultivation with inducer strain): 8.4 | IEF (pI) ([3]; cultivation without inducer strain): 8.4 | IEF (pI) ([3]; isolated by Method A): 8.4 | IEF (pI) ([3]; isolated by Method B): 8.4 | pI of the band with antimicrobial activity [3]: about 8.4 | Inhibiting Activity measured by IEF (C. jejuni NCTC 11168 [4]): band 1 | Inhibiting Activity IEF (C. jejuni NCTC 11168 [4]): +Band 1 | MICs (Sh. dysenteriae): 0.4 µg/mL | MICs (S. enteritidis 237): 0.1 µg/mL | Inhibiting Activity measured by IEF (E. coli O157:H7 904): band 1 | Inhibiting Activity IEF (E. coli O157:H7 904): +Band 1 | Inhibiting Activity measured by IEF (S. enteritidis 204): band 1 | Inhibiting Activity IEF (S. enteritidis 204): +Band 1 | MICs (Y. enterolitica 04): 0.1 µg/mL | MICs (E. coli O157:H7 lab. 39): 0.1 µg/mL | MICs (Campylobacter spp. K-10): 0.05 µg/mL | MICs (Campylobacter spp. G-1): 0.05 µg/mL | MICs (Campylobacter spp. I/U-1): 0.05 µg/mL | MICs (Campylobacter spp. P-31): 0.1 µg/mL | MICs (Campylobacter spp. G-2): 0.1 µg/mL | MICs (Campylobacter spp. P-27): 0.1 µg/mL | MICs (Campylobacter spp. P-2): 0.05 µg/mL | MICs (Campylobacter spp. B-3): 0.05 µg/mL | MICs (S. choleraesuis 434/4): 0.1 µg/mL | MICs [5]: 3.2 µg/mL | MICs ([6]; Staphylococcus epidermis): 3.2 µg/mL | MICs (Proteus mirabilis): 1.6 µg/mL | Activity UE/ml (Campylobacter jejuni; isolated by Method A): 6,400 UE/ml | Specific Activity UE/ml (Campylobacter jejuni; isolated by Method A): 85,333 | Activity UE/ml (Campylobacter jejuni; isolated by Method B): 12,800 UE/ml | Specific Activity UE/ml (Campylobacter jejuni; isolated by Method B): 320,000 | MICs (Y. enterolitica 09): 0.4 µg/mL | MICs (S. typhimurium 383/60): 0.1 µg/mL | MICs (L. monocytogenes 9-72): 0.2 µg/mL | MICs (E. coli C600): 0.1 µg/mL

B1: Bacteriocin 760: bacteriocin produced by Enterococcus durans/faecium/hirae NRRL B-30745 (strain 760); amino acid sequence SEQ ID NO 2 (protein, listed as Streptococcus cricetus)
chain: NRWYCNSAAGGVGGAAVCGLAGYVGEAKENIAGEVRKGWGMAGGFTHNKACKSFPGSGWASG
Inhibiting activity in Spot Test (C. jejuni NCTC 11168 [1]): 51,200 AU/ml | Inhibiting Activity, Spot Test (C. jejuni NCTC 11168 [1]): 51,200 AU/ml | MIC (C. jejuni L4; C. jejuni L4): 100 µg/mL | MIC (E. coli O157:H7 G-3): 1600 µg/mL | MIC (Y. pseudotuberculosis): 3200 µg/mL | Stability at different values of pH (C. jejuni NCTC 11168 [2]; about pH 10): became inactive | Antimicrobial activity after treatment (C. jejuni NCTC 11168 [2]): retained it | Stability at different values of pH (C. jejuni NCTC 11168 [2]; pH about 3.0 to about 9.0): stable | IEF (pI) [3]: 9.5 | IEF (pI) ([3]; isolated by Method A): 9.5 | IEF (pI) ([3]; isolated by Method B): 9.5 | pI of the band with antimicrobial activity [3]: about 9.5 | Inhibiting Activity measured by IEF (C. jejuni NCTC 11168 [4]): band 1 | Inhibiting Activity IEF (C. jejuni NCTC 11168 [4]): +Band 1 | MIC (Sh. dysenteriae): 100 µg/mL | MIC (S. enteritidis 237): 200 µg/mL | Inhibiting Activity measured by IEF (E. coli O157:H7 904): band 1 | Inhibiting Activity IEF (E. coli O157:H7 904): +Band 1 | Inhibiting Activity measured by IEF (S. enteritidis 204): band 1 | Inhibiting Activity IEF (S. enteritidis 204): +Band 1 | MIC (Y. enterolitica 04): 100 µg/mL | MIC (E. coli O157:H7 lab. 39): 1600 µg/mL | MICs (Campylobacter spp. K-10): 0.05 µg/mL | MICs (Campylobacter spp. G-1): 0.05 µg/mL | MICs (Campylobacter spp. I/U-1): 0.05 µg/mL | MICs (Campylobacter spp. P-31): 0.05 µg/mL | MICs (Campylobacter spp. G-2): 0.05 µg/mL | MICs (Campylobacter spp. P-27): 0.05 µg/mL | MICs (Campylobacter spp. P-2): 0.05 µg/mL | MICs (Campylobacter spp. B-3): 0.05 µg/mL | MIC (S. choleraesuis 434/4): 400 µg/mL | MIC [5]: 400 µg/mL | MIC ([6]; Staphylococcus epidermidis): 1600 µg/mL | MIC (Proteus mirabilis): 3200 µg/mL | Activity UE/ml (Campylobacter jejuni; isolated by Method A): 12,800 UE/ml | Specific Activity UE/ml (Campylobacter jejuni; isolated by Method A): 71,111 | Activity UE/ml (Campylobacter jejuni; isolated by Method B): 51,200 UE/ml | Specific Activity UE/ml (Campylobacter jejuni; isolated by Method B): 284,444 | MIC (Y. enterolitica 09): 100 µg/mL | MIC (S. typhimurium 383/60): 400 µg/mL | MIC (L. monocytogenes 9-72): 100 µg/mL | MIC (E. coli C600): 100 µg/mL
